In patent US20100196361A1, “Method of inhibition of vascular development using an antibody” (DYAX CORP., priority 2003, published 2010):
Numbering of substitutions follows the chain as printed.

B1: E3: human anti-Tie1 antibody from phage Fab library, reformatted as IgG; HC variable SEQ ID NO:114, LC variable SEQ ID NO:116 (antibody, V domains shown)
VH: EVQLLESGGGLVQPGGSLRLSCAASGFTFSMYGMVWVRQAPGKGLEWVSVISPSGGNTGYADSVKGRFTISRDNSKNTLYLQVNSLRAEDTAVYYCARAPRGYSYGYYYWGQGTLVTVSSASTKGPSVFPLAPSSKSTSGG
VL: DIQMTQSPLSLSASVGDRVTITCRASQGIGHYLAWYQQKPGKVPKLLIYTASTLQSGVPSRFSGSGSGTDFTLTINSLQPEDVATYYCQQFNSYPHTFGQGTRLDIK
modifications: IgG constant regions; Synthetically generated peptide
B2: DX-2210: E3 antibody in which the light chain has been germlined (antibody, V domains shown)
VH: B1 VH
VL: B1 VL with L9S, N76S, D105E

Key:
Tie1 = Tie1 (Homo sapiens, UniProt P35590); assay: Immunoprecipitation of Tie1 from HUVEC and platelet lysates; format: binding; conditions: for immunoprecipitation of Tie1 from platelets: activated and inactivated platelets
Tie1, sequence (P35590 22-1138): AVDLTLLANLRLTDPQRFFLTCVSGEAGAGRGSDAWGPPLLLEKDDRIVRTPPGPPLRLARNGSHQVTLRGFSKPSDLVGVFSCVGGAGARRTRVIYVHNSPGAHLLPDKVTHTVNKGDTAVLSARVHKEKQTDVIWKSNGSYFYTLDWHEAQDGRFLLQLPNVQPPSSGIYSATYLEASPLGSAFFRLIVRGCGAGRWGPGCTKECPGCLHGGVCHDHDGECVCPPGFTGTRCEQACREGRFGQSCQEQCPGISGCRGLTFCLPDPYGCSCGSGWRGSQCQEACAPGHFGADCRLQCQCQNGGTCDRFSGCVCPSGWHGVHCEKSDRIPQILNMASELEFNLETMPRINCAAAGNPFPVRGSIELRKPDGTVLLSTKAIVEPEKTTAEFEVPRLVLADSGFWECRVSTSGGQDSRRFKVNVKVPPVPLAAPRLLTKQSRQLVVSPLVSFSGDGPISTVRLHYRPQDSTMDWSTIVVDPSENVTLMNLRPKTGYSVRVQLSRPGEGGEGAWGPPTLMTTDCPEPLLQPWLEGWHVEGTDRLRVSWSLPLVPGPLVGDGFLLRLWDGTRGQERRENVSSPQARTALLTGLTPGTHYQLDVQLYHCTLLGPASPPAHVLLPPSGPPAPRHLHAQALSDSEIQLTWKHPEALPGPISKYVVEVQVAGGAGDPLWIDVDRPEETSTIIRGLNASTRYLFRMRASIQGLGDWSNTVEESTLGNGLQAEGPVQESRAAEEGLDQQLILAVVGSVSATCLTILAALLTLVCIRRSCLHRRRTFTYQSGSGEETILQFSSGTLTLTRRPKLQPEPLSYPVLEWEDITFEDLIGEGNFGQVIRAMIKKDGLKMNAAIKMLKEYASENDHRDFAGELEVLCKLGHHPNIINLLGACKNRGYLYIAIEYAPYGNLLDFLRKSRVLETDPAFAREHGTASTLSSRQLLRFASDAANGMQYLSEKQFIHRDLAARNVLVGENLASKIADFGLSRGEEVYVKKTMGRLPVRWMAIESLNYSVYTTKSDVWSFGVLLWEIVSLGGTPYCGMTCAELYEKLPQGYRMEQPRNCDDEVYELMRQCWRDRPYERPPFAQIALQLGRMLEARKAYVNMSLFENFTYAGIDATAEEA
Procedure: The conclusion from this study was that platelets represent a large pool of Tie1 immunoreactivity which could present a problem for development of Tie1 as a therapeutic target. […] Both activated and inactivated platelets were tested. Anti-Tie1 antibodies B2, D11, E3, the goat polyclonal AF619 (R&D) and negative control antibodies anti-FITC and anti-Streptavidin were used. HUVECS were retrieved from culture dishes by trypsinization and platelets were prepared with the platelet GelSep kit (Biocytex, Marseille, France) kit according to the guidelines of the manufacturer. Per immunoprecipitation experiment 3-5×10^6 and 3×10^8 cells platelets were used for each antibody tested. Platelets and cells were washed with PBS and spun down at 1400 rpm for 4 minutes and supernatant was removed. Then cells were lysed in 1 ml lysis buffer containing 50 mM Tris HCL pH 7.5, 150 mM NaCl, 0.5% Deoxycholic acid (DOC) and 0.5% NP-40 for 5 minutes. The lysed cells were spin down for 10 minutes at 14.000 rpm and 5 μg/ml antibody was added to the supernatant and incubated at 4° C. on a rotator. 100 μl/sample protein A beads (Uppsala, Sweden) were washed 3 times with lysis buffer (centrifugation speed: 15 seconds, 2000 rpm) then cell lysates incubated with antibody were added for 30 minutes 4° C. Then beads were washed three times with washing buffer containing 50 mM Tris HCL pH 7.5, 400 mM NaCl, 0.5% DOC, 0.5% NP-40. Finally, beads are spun down and the pellets was resuspended in an equal amount in sample buffer to perform SDS-page and Western blotting. In Western blotting Tie1 was detected with the polyclonal goat anti-Tie1 antibody.
It has been reported that Tie1 is expressed on platelets (Tsiamis et al. (2000) J. Vasc. Res. 37(6):437). The possibility of platelet immunoreactivity with the E3 anti-Tie1 antibody was investigated by FACs analysis and immunoprecipitation studies. […] In addition, the effect of DX-2200 and DX-2210 on platelet agglutination and aggregation was investigated. […]

[1] = tested on: LEII lung mouse endothelial cell line; assay: Tube formation by mouse endothelial cell line LEII on […]; format: cell-based; conditions: LEII cells on MATRIGEL, 16 to 18 hours
Procedure: In order to assess mouse Tie1 cross-reactivity and biological activity on mouse Tie1, both E3 and germlined E3 were evaluated for their ability to inhibit tube formation in vitro using mouse endothelial cell line (LEII).
LEII lung mouse endothelial cell line (ATCC) was cultured in a T-25 flask in MEM medium with GLUTAMAX™ (Life Technologies Ltd., Paisley, Scotland) supplemented with 10% FCS, and 1% penicillin/streptomycin. During culturing, the cells were kept in a proliferative state by culturing them in a split ratio 1:5 at an approximate density of the monolayer of about 80%. LEII monolayers were treated with trypsin/EDTA (500 μl/dish) at 37° C. for 3 min. Trypsin activity was stopped by adding 3 volumes of complete MEM medium. The cells were carefully scraped, separated by repeated pipetting, and finally washed with PBS.LEII cells were seeded in their culture medium (20-40×103/50 μl/well of a 96-well plate) on a basement membrane (BIOCOAT™ Angiogenesis System; Becton Dickinson). […] The total length of the tube network was then quantified at 40× magnification by the METAVUE™ Software (Universal Imaging Corporation). Results from triplicate wells were expressed as mean vessel area per field ±SEM (relative units). […]

Molecule | immunoprecipitation of Tie1 from HUVEC (Tie1; 5 μg/ml antibody, detection with polyclonal goat anti-Tie1) | immunoprecipitation of Tie1 from platelets (Tie1) | immunoprecipitation of Tie1 from platelets (Tie1; listed as DX-2200) | inhibition of tube formation in mouse endothelial cells [1]
B1 | able to immunoprecipitate Tie1 in HUVEC | not in platelets | nor did it immunoprecipitate Tie1 from platelet extracts | 
B2 |  |  |  | potent inhibitor of tube formation in mouse endothelial cells
